Experiment [1] concerns the target T1, full length cyno SIRPα stably expressed on CHOK1 cells (cynomolgus monkey, UniProt A0A2K5VYQ9 31-507).
T1 construct: whole, on cells; also called CHOK1-cyno SIRPα-2A2 cells; CHOK1-cyno SIRPα
T1 sequence: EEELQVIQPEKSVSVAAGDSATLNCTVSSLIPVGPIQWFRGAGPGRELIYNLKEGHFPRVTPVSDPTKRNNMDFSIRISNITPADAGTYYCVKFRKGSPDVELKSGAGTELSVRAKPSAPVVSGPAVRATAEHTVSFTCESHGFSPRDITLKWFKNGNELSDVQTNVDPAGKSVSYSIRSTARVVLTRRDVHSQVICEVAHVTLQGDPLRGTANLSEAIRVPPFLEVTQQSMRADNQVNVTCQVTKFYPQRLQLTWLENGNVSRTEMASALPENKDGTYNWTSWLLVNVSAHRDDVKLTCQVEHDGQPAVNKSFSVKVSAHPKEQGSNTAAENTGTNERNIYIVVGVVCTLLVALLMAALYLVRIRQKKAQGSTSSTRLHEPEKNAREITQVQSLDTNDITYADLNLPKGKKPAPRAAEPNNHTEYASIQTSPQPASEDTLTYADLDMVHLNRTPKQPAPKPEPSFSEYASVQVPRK
The experiment is described as follows: FACS on CHOK1 cells.

The target in experiment [2] is T2, full length C57BL/6 mouse SIRPα stably expressed on CHOK1 cells (mouse (C57BL/6), UniProt P97797 32-513).
T2 construct: whole, on cells; also called CHOK1-C57BL/6 mouse SIRPα-2.22 cells
T2 sequence (looked up): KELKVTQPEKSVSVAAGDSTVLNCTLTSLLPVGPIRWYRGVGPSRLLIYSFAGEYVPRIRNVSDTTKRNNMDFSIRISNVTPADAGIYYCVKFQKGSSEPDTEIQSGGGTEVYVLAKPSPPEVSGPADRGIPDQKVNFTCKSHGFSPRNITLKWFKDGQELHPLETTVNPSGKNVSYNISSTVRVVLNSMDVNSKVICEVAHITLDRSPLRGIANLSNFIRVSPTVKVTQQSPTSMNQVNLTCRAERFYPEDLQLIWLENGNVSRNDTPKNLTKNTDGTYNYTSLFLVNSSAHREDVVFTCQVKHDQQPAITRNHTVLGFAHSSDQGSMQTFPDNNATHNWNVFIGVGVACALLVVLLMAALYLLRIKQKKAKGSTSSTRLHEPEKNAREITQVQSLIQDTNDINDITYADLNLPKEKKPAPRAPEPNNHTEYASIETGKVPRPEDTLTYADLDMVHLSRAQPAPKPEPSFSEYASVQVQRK
The experiment is described as follows: FACS on CHOK1 cells.

Experiment [3] has as its target T3, 6×His tagged C57BL/6 mouse SIRPα ECD recombinant protein (mouse (C57BL/6), UniProt P97797 32-373).
T3 construct: extracellular domain; bought; also called mSIRPα (C57BL/6); mouse SIRPα (C57BL/6) ECD
T3 sequence: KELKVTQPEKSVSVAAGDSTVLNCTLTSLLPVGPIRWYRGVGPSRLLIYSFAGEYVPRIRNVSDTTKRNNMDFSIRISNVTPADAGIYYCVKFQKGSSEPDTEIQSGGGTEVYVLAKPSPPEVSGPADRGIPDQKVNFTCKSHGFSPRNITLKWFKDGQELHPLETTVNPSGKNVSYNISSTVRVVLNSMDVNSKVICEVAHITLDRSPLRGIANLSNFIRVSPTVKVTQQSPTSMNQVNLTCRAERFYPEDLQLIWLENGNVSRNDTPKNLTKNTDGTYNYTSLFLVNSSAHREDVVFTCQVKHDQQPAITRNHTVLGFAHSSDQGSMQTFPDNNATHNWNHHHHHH
The experiment is described as follows: SPR (Biacore), antibody captured. The procedure:
(§1) Anti-SIRPα chimeric antibodies were characterized for binding affinity against human SIRPα v1, human SIRPα v2 and C57BL/6 mouse SIRPα using Biacore (GE). Briefly the antibodies to be tested were captured to CM5 chip (GE) using Human Antibody Capture Kit (GE). The antigens of 6×His tagged human SIRPα v1, human SIRPα v2 and C57BL/6 mouse SIRPα ECD recombinant proteins were serially diluted for multiple doses and injected at 30 μl/min for 180 s. Buffer flow was maintained for dissociation of 400 s. 3 M MgCl₂ was used for chip regeneration. The association and dissociation curves were fit with 1:1 binding model, and the Ka/Kd/KD values for each antibody were calculated.

The target in experiment [4] is T4, 6×His tagged human SIRPα v2 ECD recombinant protein (human). The experiment is described as follows: SPR (Biacore), antibody captured. The procedure:
as §1
On the technique in general: SPR reads the build-up and loss of mass on a sensor chip optically.

Experiment [5] concerns the target T5, 6×His tagged human SIRPα v1 ECD recombinant protein (human, UniProt P78324 31-373).
T5 construct: extracellular domain; bought; also called hSIRPα V1 (SPR antigen)
The experiment is described as follows: SPR (Biacore), antibody captured. The procedure:
as §1

Experiment [6] concerns the target T4, 6×His tagged human SIRPα v2 ECD …. The experiment is described as follows: SPR (Biacore). On the procedure:
as §1

In experiment [7] the target is T5, 6×His tagged human SIRPα v1 ECD …. The experiment is described as follows: SPR (Biacore). On the procedure: as §1

As usually defined, the EC50 is the concentration giving half of the maximal effect. Lower therefore signals higher potency in that assay. As usually defined, the Kd is the free concentration of one partner at which half of the binding sites on the other are occupied at equilibrium, for simple one-to-one binding. Usually koff stands for the first-order rate constant of dissociation. As a reminder, the kon is a measure of how fast the partners come together.

T4 sequence (chain, as listed by the source): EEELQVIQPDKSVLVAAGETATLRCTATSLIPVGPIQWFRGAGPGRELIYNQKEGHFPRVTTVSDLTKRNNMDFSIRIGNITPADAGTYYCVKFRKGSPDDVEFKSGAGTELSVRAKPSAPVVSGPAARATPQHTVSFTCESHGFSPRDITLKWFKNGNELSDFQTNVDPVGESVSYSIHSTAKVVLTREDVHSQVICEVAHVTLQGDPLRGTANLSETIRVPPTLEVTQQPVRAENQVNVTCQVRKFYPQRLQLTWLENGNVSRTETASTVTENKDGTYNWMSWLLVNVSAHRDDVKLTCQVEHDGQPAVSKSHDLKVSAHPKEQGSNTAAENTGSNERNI
T5 sequence (P78324 other isoform, or with tags, fused parts or gaps): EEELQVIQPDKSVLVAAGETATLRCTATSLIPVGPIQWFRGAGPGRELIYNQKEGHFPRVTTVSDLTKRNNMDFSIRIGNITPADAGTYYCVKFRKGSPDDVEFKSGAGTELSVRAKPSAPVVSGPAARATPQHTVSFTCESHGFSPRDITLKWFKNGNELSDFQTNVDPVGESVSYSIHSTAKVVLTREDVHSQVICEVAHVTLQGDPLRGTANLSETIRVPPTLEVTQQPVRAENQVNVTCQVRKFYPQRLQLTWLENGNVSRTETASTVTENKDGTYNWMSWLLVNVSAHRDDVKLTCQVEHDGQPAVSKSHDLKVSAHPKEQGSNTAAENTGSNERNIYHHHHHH

B1: chimeric antibody 035c (antibody, V domains shown)
VH: QIQLVQSGPELRKPGETVKISCKASGYSFTNYAMNWVKQAPGKVLKWMGFINTYTGEPTYADDFKGRFAFSLETSASTAYLQINNLKNEDTATYFCTRTRGYYDFDGGAFDYWGQGTSLTVSS
VL: DIVMTQSQKFMSTSIGDRVSVTCKASQNVGTHLAWYQQKPGQSPKALIFSASYRYIGVPDRFTGSGSGTDFTLTITNVQSEDLAEYFCQQYNTYPLTFGAGTKLELK
For the molecule B1, a half-maximal effect in experiment [1] (EC50) was put at 0.42 nM. The “MFI at 2 ug/ml” value in experiment [2] came to 310 MFI. The Kd came to 5270 nM in experiment [3]; 2.62 nM in experiment [4]; 1.11 nM in experiment [5]; 2.62 nM in experiment [6]; 1.11 nM in experiment [7]. Further, the koff was determined as 0.0247 s⁻¹ in experiment [3], 0.000154 s⁻¹ in experiment [4] and 0.000203 s⁻¹ in experiment [5]. Moreover, the kon worked out at 4690 M⁻¹ s⁻¹ in experiment [3], 59000 M⁻¹ s⁻¹ in experiment [4] and 183000 M⁻¹ s⁻¹ in experiment [5].

The record behind these values is patent publication US20210347908A1 (ELPISCIENCE SUZHOU BIOPHARMA, published 2021).
